Experimental data published in patent US20230391826A1, “COMPOSITIONS AND METHODS FOR TREATING DISEASES” (Sanford Burnham Prebys Medical Discovery Institute, priority 2020, published 2023).
Each block holds one binder with its values, some of them ahead of it. *1 amine or outer side, *2 acyl side, *3 side chain or, on linkers, in order; H or OH if unused. Where no end group is shown, it is not given here. [ ]: non-standard residue; d: D form. Ccam = carbamidomethyl-cysteine, NC(=O)CSC[C@H](N[*:1])C(=O)[*:2]; βAla = NCCC(=O)O

Tests used:
[1] = biological target: EphA2 extracellular domain fused to the Fc portion of an antibody (EphA2-Fc); test: ELISA, inhibition of ephrinA5-AP binding to immobilized EphA2-Fc
[2] = biological target: EphA2 extracellular domain fused to the Fc portion of an antibody (EphA2-Fc); test: ELISA, inhibition of ephrinA5-AP binding to immobilized EphA2-Fc; representative experiment, triplicates

Chain of EphA2 extracellular domain fused to the Fc portion of an antibody (EphA2-Fc) (P29317 whole entry, the tested form may be a part): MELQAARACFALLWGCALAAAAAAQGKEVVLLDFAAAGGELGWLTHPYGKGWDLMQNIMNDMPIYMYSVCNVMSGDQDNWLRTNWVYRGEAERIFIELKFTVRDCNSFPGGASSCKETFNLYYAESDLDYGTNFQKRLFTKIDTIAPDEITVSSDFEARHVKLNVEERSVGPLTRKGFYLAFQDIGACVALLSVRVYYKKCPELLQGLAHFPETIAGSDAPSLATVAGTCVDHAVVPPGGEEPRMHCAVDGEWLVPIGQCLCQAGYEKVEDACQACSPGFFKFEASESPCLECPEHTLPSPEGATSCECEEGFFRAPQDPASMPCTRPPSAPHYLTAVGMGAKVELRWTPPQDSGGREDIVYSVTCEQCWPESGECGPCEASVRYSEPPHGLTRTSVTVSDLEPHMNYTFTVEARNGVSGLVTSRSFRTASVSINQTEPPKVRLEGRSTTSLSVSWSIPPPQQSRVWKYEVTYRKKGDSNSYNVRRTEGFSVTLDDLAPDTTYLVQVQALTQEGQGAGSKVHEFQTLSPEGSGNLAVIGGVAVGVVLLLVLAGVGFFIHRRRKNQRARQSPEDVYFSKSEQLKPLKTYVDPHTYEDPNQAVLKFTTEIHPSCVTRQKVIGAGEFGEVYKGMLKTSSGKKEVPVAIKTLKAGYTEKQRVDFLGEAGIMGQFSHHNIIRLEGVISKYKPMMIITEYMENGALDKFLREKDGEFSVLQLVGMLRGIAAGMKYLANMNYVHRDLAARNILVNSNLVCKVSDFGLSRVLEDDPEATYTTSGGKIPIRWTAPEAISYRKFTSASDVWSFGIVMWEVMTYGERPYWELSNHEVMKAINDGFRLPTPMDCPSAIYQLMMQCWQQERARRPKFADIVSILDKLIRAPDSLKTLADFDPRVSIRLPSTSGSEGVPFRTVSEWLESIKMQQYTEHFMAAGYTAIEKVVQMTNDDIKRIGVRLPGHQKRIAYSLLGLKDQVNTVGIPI

Binder: [Ccam]GAWLAYPDSVPYR [CcamGA-WLA-YR]
- IC50 [1]: 1400 nM
- IC50 [2]: 1300 nM

B2: Click dimer (N-ter) (peptide)
peptide 1: KAWLAYPDSVPYRPK
peptide 2: XGAWLAYPDSVPYRPK
modifications: not fully specified; propargylglycine (Pra) at position 1, joined by a click linkage to KN3 of the other chain; C-terminal amide; azido-lysine (KN3) at position 1, joined by a click linkage to Pra of the other chain; C-terminal amide
- IC50 [1]: 0.54 nM
- IC50 [2]: 0.58 nM

The next lines start with the values.

- IC50 [1]: 0.77 nM
- IC50 [2]: 0.77 nM
B1: Lys-linked dimer (C-ter) (peptide)
peptide 1: [βAla]WLAYPDSVPYRPKK
peptide 2: [βAla]WLAYPDSVPYRPK
modifications: also: bond at chain A 15 to a chain's C-terminus

- IC50 [1]: 0.4 nM
- IC50 [2]: 0.38 nM
B3: linear dimer (head-to-tail) (peptide)
peptide: [βAla]WLAYPDSVPYRPKGGAWLAYPDSVPYRPK-NH2
modifications: N-terminus assumed
SMILES: CC(C)C[C@H](NC(=O)[C@H](Cc1c[nH]c2ccccc12)NC(=O)CCN)C(=O)N[C@@H](C)C(=O)N[C@@H](Cc1ccc(O)cc1)C(=O)N1CCC[C@H]1C(=O)N[C@@H](CC(=O)O)C(=O)N[C@@H](CO)C(=O)N[C@H](C(=O)N1CCC[C@H]1C(=O)N[C@@H](Cc1ccc(O)cc1)C(=O)N[C@@H](CCCNC(=N)N)C(=O)N1CCC[C@H]1C(=O)N[C@@H](CCCCN)C(=O)NCC(=O)NCC(=O)N[C@@H](C)C(=O)N[C@@H](Cc1c[nH]c2ccccc12)C(=O)N[C@@H](CC(C)C)C(=O)N[C@@H](C)C(=O)N[C@@H](Cc1ccc(O)cc1)C(=O)N1CCC[C@H]1C(=O)N[C@@H](CC(=O)O)C(=O)N[C@@H](CO)C(=O)N[C@H](C(=O)N1CCC[C@H]1C(=O)N[C@@H](Cc1ccc(O)cc1)C(=O)N[C@@H](CCCNC(=N)N)C(=O)N1CCC[C@H]1C(=O)N[C@@H](CCCCN)C(N)=O)C(C)C)C(C)C
